Results on 29 molecules are retold here after patent publication US20090004210A1.

Test [1] concerns the target monoclonal antibody (mAb) to detect Aβ42-derived peptide species with free N-terminus (generated in Example 1). In words: competition ELISA: soluble peptide against plate-bound DAEFRH-C-BSA for the biotinylated mAb, FIG. 9. In general terms: An ELISA detects its analyte on a solid surface through an enzyme-linked reagent.
The target is the same in test [2]. Put plainly: competition ELISA: soluble peptide against plate-bound DAEFRH-C-BSA for the biotinylated mAb, FIG. 8.
Test [3] has the same target. Put plainly: competition ELISA: soluble peptide against plate-bound DAEFRH-C-BSA for the biotinylated mAb, FIG. 7.
For test [4] the target is unchanged. Put plainly: competition ELISA: soluble peptide against plate-bound DAEFRH-C-BSA for the biotinylated mAb, FIG. 4.
The target is the same in test [5]. Put plainly: competition ELISA: soluble peptide against plate-bound DAEFRH-C-BSA for the biotinylated mAb, FIG. 5.
Test [6] has the same target. Put plainly: competition ELISA: soluble peptide against plate-bound DAEFRH-C-BSA for the biotinylated mAb, FIG. 3.
Test [7] shares this target. In words: competition ELISA: soluble peptide against plate-bound DAEFRH-C-BSA for the biotinylated mAb, FIG. 2.

Bounds are passed on as bounds.

Broadly, the IC50 is the concentration that inhibits the measured activity by half. In test [1], Peptide 4062 DKE(Nle)R gave an IC50 above 0.5 µg/mL.
Peptide 4063 DKE(Nva)R displayed an IC50 in test [1] above 0.5 µg/mL.
In test [1], Peptide 4064 DKE(Cha)R showed an IC50 above 0.5 µg/mL.
For DAELRYC [Peptide 4031 DAELRY], the 50% inhibitory concentration (IC50) in test [2] is below 0.5 µg/mL.
Take DWEFRDC [Peptide 4025 DWEFRD]: the half-inhibitory concentration (IC50) in test [3] is below 0.5 µg/mL.
In test [4], SWEFRTC [Peptide 4002 SWEFRT] registered an IC50 below 0.4 µg/mL.
With SYEFRHHC [Peptide 4022 SYEFRHH], in test [3], the half-maximal inhibitory concentration (IC50) was below 0.5 µg/mL.
Regarding SQEFRTPC [Peptide 4023 SQEFRTP], the IC50 in test [3] is below 0.5 µg/mL.
For EYEFRGC [Peptide 1239 EYEFRG], the IC50 in test [5] was above 0.5 µg/mL.
SFEFRGC [Peptide 3009 SFEFRG] returned a half-inhibitory concentration (IC50) in test [6] below 5 µg/mL.
The molecule DWEFRDAC [Peptide 1241 DWEFRDA] had an IC50 in test [5] below 0.5 µg/mL.
As to DYEFRGC [Peptide 3007 DYEFRG], in test [7], the IC50 was below 0.5 µg/mL.
As to AYEFRHC [Peptide 4036 AYEFRH], the IC50 in test [2] is above 0.5 µg/mL.
DWELRQC [Peptide 4032 DWELRQ]: in test [2], the IC50 was below 0.5 µg/mL.
SWELRQAC [Peptide 4020 SWELRQA] returned an IC50 in test [3] above 0.5 µg/mL.
Same read-out and setting: the value for SVEFRYHC [Peptide 4021 SVEFRYH] was below 0.5 µg/mL.
Take DRELKIC [Peptide 1237 DRELKI]: the IC50 in test [5] is above 5 µg/mL.
Same read-out and setting: the value for DKELKIC [Peptide 1236 DKELKI] was above 5 µg/mL.
EAEFRGC [Peptide 3006 EAEFRG]: the 50% inhibitory concentration (IC50) in test [7] is below 0.5 µg/mL.
With ELEFRGC [Peptide 3008 ELEFRG], the half-maximal inhibitory concentration (IC50) in test [6] was below 5 µg/mL.
Regarding DWELRIC [Peptide 3002 DWELRI], in test [7], the IC50 is above 0.5 µg/mL.
As for DRELRIC [Peptide 1235 DRELRI], in test [5], the half-inhibitory concentration (IC50) is below 0.5 µg/mL.
In turn, YAEFRGC [Peptide 3005 YAEFRG] returned an IC50 in test [7] above 0.5 µg/mL.
For SSEFRVSC [Peptide 4024 SSEFRVS], in test [3], the IC50 was below 0.5 µg/mL.
As to GPEFRWC [Peptide 4034 GPEFRW], the concentration for half-maximal inhibition (IC50) in test [2] is below 0.5 µg/mL.
On the same count and under the same terms, to GKEFRTC [Peptide 4035 GKEFRT] belongs below 0.5 µg/mL.
DKELRIC [Peptide 3001 DKELRI] displayed an IC50 in test [7] below 0.5 µg/mL.
SLEFRFC [Peptide 4033 SLEFRF] had a concentration for half-maximal inhibition (IC50) in test [2] below 0.5 µg/mL.
In the case of DKELRC [Peptide 1238 DKELR], the IC50 in test [5] is below 0.5 µg/mL.
